For orientation: Kd means the constant that tells how readily two partners part at equilibrium. Lower therefore signals higher affinity. The koff is a measure of how fast the partners let go of each other. A lower koff goes with slow dissociation. What is called kon is the second-order rate constant of association. Higher therefore signals fast association. The t½ is how long it takes for the measured level to halve. High values mean slow loss, low ones fast loss.

This note sets out measurements from patent publication US20240158497A1 (published 2024).

T1: human GP130 extracellular domain expressed with a C-terminal mouse IgG2a Fc tag (hGP130-mFc) (human)
T1 construct: also called dimeric human GP130
T1 chain: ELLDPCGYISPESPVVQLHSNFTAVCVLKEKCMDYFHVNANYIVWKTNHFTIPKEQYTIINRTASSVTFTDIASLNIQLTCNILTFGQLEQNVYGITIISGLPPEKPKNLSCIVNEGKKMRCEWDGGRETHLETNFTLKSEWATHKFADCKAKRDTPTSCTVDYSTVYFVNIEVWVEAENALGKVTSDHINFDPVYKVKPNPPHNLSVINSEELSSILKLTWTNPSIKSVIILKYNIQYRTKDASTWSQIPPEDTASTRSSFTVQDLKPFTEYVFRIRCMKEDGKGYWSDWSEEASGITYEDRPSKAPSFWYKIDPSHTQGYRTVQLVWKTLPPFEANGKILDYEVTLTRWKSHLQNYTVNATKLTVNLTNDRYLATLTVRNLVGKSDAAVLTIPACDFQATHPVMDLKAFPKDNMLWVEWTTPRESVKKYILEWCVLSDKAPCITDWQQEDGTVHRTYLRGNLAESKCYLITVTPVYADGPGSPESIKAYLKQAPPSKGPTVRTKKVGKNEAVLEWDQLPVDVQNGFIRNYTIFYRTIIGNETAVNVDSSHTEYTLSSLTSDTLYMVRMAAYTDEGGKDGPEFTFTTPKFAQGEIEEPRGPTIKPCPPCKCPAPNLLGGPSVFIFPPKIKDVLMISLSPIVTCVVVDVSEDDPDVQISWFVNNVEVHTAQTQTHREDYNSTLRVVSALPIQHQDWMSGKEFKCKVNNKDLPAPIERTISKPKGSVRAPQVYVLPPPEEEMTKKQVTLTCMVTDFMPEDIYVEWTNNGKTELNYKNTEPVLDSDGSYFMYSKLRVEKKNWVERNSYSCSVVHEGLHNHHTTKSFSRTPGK

B1: MAb16656 (antibody, V domains shown)
VH: EVQLVESGGGLVQPGRSLRLSCAASGFTLDDFAMHWVRQAPGKGLEWVSGISWNSGNIGYADSVKGRFTISRDNARNSLYLQMNSLRAEDTALYYCTSGYYLYYAMDVWGQGTTVTVSS
VL: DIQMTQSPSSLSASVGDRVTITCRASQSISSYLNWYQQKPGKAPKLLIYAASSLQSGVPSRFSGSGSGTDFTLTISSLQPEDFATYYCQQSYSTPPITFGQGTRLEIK
notes: captured through anti-human Fc
B2: MAb16637 (antibody, V domains shown)
VH: QVQLVQSGAEVKKPGASVKVSCKASGYTFTSLGISWVRQAPGQGLEWMGWISAYSGNRDYAQKFQGRVTMTTDTSTSTAYMELRSLRSDDTAVYYCARSLRFDYWGQGTLVTVSS
VL: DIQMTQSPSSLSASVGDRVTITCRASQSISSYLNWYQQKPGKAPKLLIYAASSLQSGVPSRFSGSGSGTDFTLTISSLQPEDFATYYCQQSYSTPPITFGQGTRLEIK
notes: as for B1
B3: MAb16618 (antibody, V domains shown)
VH: QVQLQESGPGLVKPSETLSLTCTVSGGSISNYYWTWIRQPPGKGLEWIGHISNSGTTNYNPSLKSRVTISVDTSKNQFSLKLTSVTAADTAVYYCARLPLGIAAVDTDYYYYFGMDVWGQGTTVTVSS
VL: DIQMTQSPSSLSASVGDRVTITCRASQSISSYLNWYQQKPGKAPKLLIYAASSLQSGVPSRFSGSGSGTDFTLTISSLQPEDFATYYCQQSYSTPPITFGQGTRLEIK
notes: as for B1
B4: MAb16636 (antibody, V domains shown)
VH: QLQLQESGPGLVKPSETLSLICTVSGGSISSNNYYWGWIRQPPGKGLEWIGNLYGSGSTYYNPSLKSRVTISVDTSKNQFSLKLSFVTAADTAVYHCARWDTNGGAFDIWGQGTMVTVSS
VL: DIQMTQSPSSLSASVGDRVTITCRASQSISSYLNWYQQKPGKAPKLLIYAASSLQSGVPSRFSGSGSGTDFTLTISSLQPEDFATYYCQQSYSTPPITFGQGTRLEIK
notes: as for B1
B5: MAb16623 (antibody, V domains shown)
VH: EVQLVESGGGLVQPGGSLRLSCAASGLTFSSYEMNWVRQAPGKGLEWVSHISSAGSTKYYADSVKGRFTISRDNAKNSLFLQMNSLRAEDTAIYYCAGYNYAYYYFGVDVWGQGTTVTVSS
VL: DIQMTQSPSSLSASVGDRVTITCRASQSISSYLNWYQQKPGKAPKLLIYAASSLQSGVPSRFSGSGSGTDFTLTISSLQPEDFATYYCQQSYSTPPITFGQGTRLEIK
notes: as for B1
B6: MAb16622 (antibody, V domains shown)
VH: EVQLVESGGGVVRPGGSLRLSCTASGFTFDDYGMSWVRQAPGKGLEWVSGINWNGGRTEYADAVKGRFIISRDNAKNSLYLQMNSLRAEDTALYFCARTELRWDYWGQGTLVTVSS
VL: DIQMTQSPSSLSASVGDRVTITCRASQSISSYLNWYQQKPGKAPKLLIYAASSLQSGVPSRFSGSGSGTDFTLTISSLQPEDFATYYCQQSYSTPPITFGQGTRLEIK
notes: as for B1
B7: MAb16614 (antibody, V domains shown)
VH: QVQLVESGGGVVQPGGSLRLSCAASGFTFSTYDIHWVRQAPGKGLEWVAVISFDGSNRNYGDSVKGRFTISRDNSDNTLFLEMNNLRFEDTAVYYCAKEGYGVDFQHWGQGTLVTVSS
VL: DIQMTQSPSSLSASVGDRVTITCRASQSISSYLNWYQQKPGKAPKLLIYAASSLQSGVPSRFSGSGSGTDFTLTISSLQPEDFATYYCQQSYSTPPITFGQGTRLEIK
notes: as for B1

The target in the first assay is T2, mouse GP130 extracellular domain expressed with a C-terminal myc-myc-hexahistidine tag (mGP130-mmH) (mouse, UniProt Q00560 23-617).
T2 construct: Monomeric; the entry includes the myc-myc-His tag
The experiment in a line: SPR Biacore, mAb captured via anti-hFc, 37 C. The procedure: (§1) Equilibrium dissociation constant (KD) for different GP130 reagents binding to purified anti-GP130 monoclonal antibodies were determined using a real-time surface plasmon resonance based Biacore 4000 biosensor. All binding studies were performed in 10 mM HEPES, 150 mM NaCl, 3 mM EDTA, and 0.05% v/v Surfactant Tween-20, pH 7.4 (HBS-ET) running buffer at 25° C. and 37° C. The Biacore sensor surface was first derivatized by amine coupling with a monoclonal mouse anti-human Fc antibody (GE, #BR-1008-39) to capture anti-GP130 monoclonal antibodies. […] Reagents tagged with “mmH” are monomeric, whereas reagents tagged with “mFc” are dimeric. Thus, for example, “hGP130-mmH” is also referred to as “monomeric human GP130,” and “hGP130-mFc” is also referred to as “dimeric human GP130.”
(§2) The association rate (k a) and dissociation rate (kd) were determined by fitting the real-time binding sensorgrams to a 1:1 binding model with mass transport limitation using Scrubber 2.0c curve-fitting software. Binding dissociation equilibrium constant (KD) and dissociative half-life (t ½) were calculated from the kinetic rates as: […]
(In general: In SPR one partner is held on a chip, and binding of the other changes the refractive index at the surface.)
For B1, the “100 nM Ag Bound (RU)” value came out at 0 RU and the binding result is “no binding (tested: 100 nM)”.

Take B2: the “100 nM Ag Bound (RU)” value was -1 RU.

In the case of B3, the “100 nM Ag Bound (RU)” value is 0 RU.

In the case of B4, the “100 nM Ag Bound (RU)” value came to 0 RU.

B5: the “100 nM Ag Bound (RU)” value was 0 RU.

Turning to B6, the “100 nM Ag Bound (RU)” value came to 1 RU.

Consider B7, for which the “100 nM Ag Bound (RU)” value stood at 0 RU.

Another assay concerns the target T3, rat GP130 extracellular domain expressed with a C-terminal myc-myc-hexahistidine tag (rGP130-mmH) (rat, UniProt P40190 23-618).
T3 construct: Monomeric; the entry includes the myc-myc-His tag
The experiment in a line: SPR Biacore, mAb captured via anti-hFc, 37 C. The procedure: as §1, §2
With B1, the “100 nM Ag Bound (RU)” value is 0 RU.

As to B2, the “100 nM Ag Bound (RU)” value amounted to 0 RU.

With B3, the “100 nM Ag Bound (RU)” value was 2 RU.

B4: the “100 nM Ag Bound (RU)” value stood at 0 RU.

On to B5, for which the “100 nM Ag Bound (RU)” value is 0 RU.

Take B6: the “100 nM Ag Bound (RU)” value worked out at 1 RU.

B7: the “100 nM Ag Bound (RU)” value was determined as 0 RU.

A further assay concerns the target T1, human GP130 extracellular domain …. As to the kind of experiment: SPR Biacore, mAb captured via anti-hFc, 37 C. The procedure: as §1, §2
On to B1, for which the “100 nM Ag Bound (RU)” value came to 123 RU, the Kd is 1700 pM, the koff came out at 0.000297 s⁻¹ and the kon turned out to be 175000 M⁻¹ s⁻¹. The same molecule yielded a t½ of 39 min.

In the case of B2, the “100 nM Ag Bound (RU)” value was 246 RU, the dissociation constant (Kd) is 650 pM, the dissociation rate constant (koff) came to 0.000323 s⁻¹ and the kon came to 496000 M⁻¹ s⁻¹. The molecule also displayed a t½ of 36 min.

Consider B3, for which the “100 nM Ag Bound (RU)” value was 236 RU; the affinity, expressed as Kd, was 674 pM; the koff came to 0.000934 s⁻¹; the on-rate constant (kon) was 1.39e+06 M⁻¹ s⁻¹. The same molecule returned a t½ of 12 min.

Consider B4, for which the “100 nM Ag Bound (RU)” value was determined as 136 RU, the Kd was 1200 pM, the dissociation rate constant (koff) came out at 0.000167 s⁻¹ and the kon is 139000 M⁻¹ s⁻¹. The same molecule came in with a t½ of 69 min.

As for B5, the “100 nM Ag Bound (RU)” value is 224 RU; the affinity, expressed as Kd, was 560 pM; the koff came to 0.000325 s⁻¹; the kon stood at 580000 M⁻¹ s⁻¹. The molecule also registered a t½ of 36 min.

Turning to B6, the “100 nM Ag Bound (RU)” value amounted to 201 RU, the Kd stood at 1290 pM, the koff worked out at 0.000825 s⁻¹ and the kon came to 639000 M⁻¹ s⁻¹. The same molecule showed a t½ of 14 min.

Regarding B7, the “100 nM Ag Bound (RU)” value stood at 85 RU; the affinity, expressed as Kd, was 9560 pM; the koff amounted to 0.00172 s⁻¹; the kon is 180000 M⁻¹ s⁻¹. For the same molecule, the t½ worked out at 7 min.

A further assay concerns the target T2, mouse GP130 extracellular domain …. The experiment in a line: SPR Biacore, mAb captured via anti-hFc, 25 C. The procedure: as §1, §2
In the case of B1, the “100 nM Ag Bound (RU)” value came out at 0 RU.

For the molecule B2, the “100 nM Ag Bound (RU)” value was 1 RU.

For B3, the “100 nM Ag Bound (RU)” value is 1 RU and the binding result is recorded as “no binding (tested: 100 nM)”.

Turning to B4, the “100 nM Ag Bound (RU)” value amounted to 0 RU and the binding result is given as “no binding (tested: 100 nM)”.

With B5, the “100 nM Ag Bound (RU)” value amounted to 0 RU and the binding result is given as “no binding (tested: 100 nM)”.

Regarding B6, the “100 nM Ag Bound (RU)” value stood at 1 RU and the binding result is on record as “no binding (tested: 100 nM)”.

On to B7, for which the “100 nM Ag Bound (RU)” value was determined as 1 RU and the binding result was “no binding (tested: 100 nM)”.

In a further assay the target is T3, rat GP130 extracellular domain …. The experiment in a line: SPR Biacore, mAb captured via anti-hFc, 25 C. How it is done: as §1, §2
In the case of B1, the “100 nM Ag Bound (RU)” value was -1 RU.

With B2, the “100 nM Ag Bound (RU)” value is 0 RU and the binding result was “no binding (tested: 100 nM)”.

For B3, the “100 nM Ag Bound (RU)” value is 6 RU and the binding result is given as “no binding (tested: 100 nM)”.

With B4, the “100 nM Ag Bound (RU)” value turned out to be 1 RU and the binding result is given as “no binding (tested: 100 nM)”.

In the case of B5, the “100 nM Ag Bound (RU)” value was 0 RU and the binding result was “no binding (tested: 100 nM)”.

With B6, the “100 nM Ag Bound (RU)” value turned out to be 0 RU and the binding result is listed as “no binding (tested: 100 nM)”.

For the molecule B7, the “100 nM Ag Bound (RU)” value is 0 RU and the binding result is listed as “no binding (tested: 100 nM)”.

A further assay has as its target T1, human GP130 extracellular domain …. As to the kind of experiment: SPR Biacore, mAb captured via anti-hFc, 25 C. How it is done:
as §1, §2
For B1, the “100 nM Ag Bound (RU)” value was found to be 98 RU; the affinity, expressed as Kd, was 1680 pM; the koff stood at 0.000132 s⁻¹; the on-rate (kon) worked out at 78100 M⁻¹ s⁻¹. This molecule showed a t½ of 88 min.

On to B2, for which the “100 nM Ag Bound (RU)” value was found to be 189 RU, the Kd was 647 pM, the koff was found to be 0.00015 s⁻¹ and the kon was 232000 M⁻¹ s⁻¹. Moreover, the t½ was found to be 77 min.

For B3, the “100 nM Ag Bound (RU)” value worked out at 202 RU, binding was put at a Kd of 236 pM, the koff is 0.000279 s⁻¹ and the kon is 1.19e+06 M⁻¹ s⁻¹. Moreover, the t½ was determined as 41 min.

Regarding B4, the “100 nM Ag Bound (RU)” value is 91 RU, binding was put at a Kd of 1920 pM, the koff worked out at 0.000113 s⁻¹ and the kon worked out at 58800 M⁻¹ s⁻¹. The t½ stood at 102 min.

As for B5, the “100 nM Ag Bound (RU)” value stood at 184 RU, the Kd came to 468 pM, the koff came out at 0.000208 s⁻¹ and the kon worked out at 444000 M⁻¹ s⁻¹. For the same molecule, the t½ stood at 56 min.

As for B6, the “100 nM Ag Bound (RU)” value is 164 RU, the Kd stood at 615 pM, the koff is 0.000306 s⁻¹ and the kon stood at 497000 M⁻¹ s⁻¹. Also, the t½ is 38 min.

Consider B7, for which the “100 nM Ag Bound (RU)” value came to 83 RU, the dissociation constant (Kd) was found to be 4470 pM, the koff worked out at 0.000383 s⁻¹ and the kon amounted to 85700 M⁻¹ s⁻¹. Further, the t½ was 30 min.
